Earlier results, collected in paper PMC10530560 (Cell chemical biology, 2023).

B1: PSGL-1: P-selectin glycoprotein ligand-1 as tested in previous literature studies (protein, UniProt Q14242 42-412, looked up)
P-selectin glycoprotein …: QATEYEYLDYDFLPETEPPEMLRNSTDTTPLTGPGTPESTTVEPAARRSTGLDAGGAVTELTTELANMGNLSTDSAAMEIQTTQPAATEAQTTQPVPTEAQTTPLAATEAQTTRLTATEAQTTPLAATEAQTTPPAATEAQTTQPTGLEAQTTAPAAMEAQTTAPAAMEAQTTPPAAMEAQTTQTTAMEAQTTAPEATEAQTTQPTATEAQTTPLAAMEALSTEPSATEALSMEPTTKRGLFIPFSVSSVTHKGIPMAASNLSVNYPVGAPDHISVKQCLLAILILALVATIFFVCTVVLAVRLSRKGHMYPVRNYSPTEMVCISSLLPDGGEGPSATANGGLSKAKSPGLTPEPREDREGDDLTLHSFLP

Legend:
[1] = system: CXCL12
[2] = system: CCL5
[3] = system: CCL3
[4] = system: CXCL8
[5] = system: CCL19
[6] = system: CCL21
[7] = system: CCL27
[8] = system: CCL5; settings: CCL5, immobilized rPSGL-1 with SLe^x modification
[9] = system: CXCL12; settings: CXCL12, chemotaxis assays using murine T-cells from WT and PSGL-1 null mice
[10] = system: VISTA; settings: pH-dependent; dependent on tyrosine sulfation, not on SLe^x on Thr57

Molecule	heparan sulfate binding [1]	heparan sulfate binding [2]	heparan sulfate binding [3]	heparan sulfate binding [4]	binding to PSGL-1 [5]	binding to PSGL-1 [6]	binding to PSGL-1 [7]	binding to PSGL-1 [8]	binding to PSGL-1 [9]	binding of VISTA [10]
heparan sulfate	found to bind	found to bind	did not bind	did not bind	–	–	–	–	–	–
B1	–	–	–	–	reported to bind PSGL-1	reported to bind PSGL-1	reported to bind PSGL-1	did not bind	did not bind	novel pH-dependent ligand
